The text below walks through data of paper PMC2213614 (The Journal of Cell Biology, 2008).

The assay addresses T1, GST-[change] (aa 1–320) (S. cerevisiae, UniProt P33332 1-320).
T1 sequence: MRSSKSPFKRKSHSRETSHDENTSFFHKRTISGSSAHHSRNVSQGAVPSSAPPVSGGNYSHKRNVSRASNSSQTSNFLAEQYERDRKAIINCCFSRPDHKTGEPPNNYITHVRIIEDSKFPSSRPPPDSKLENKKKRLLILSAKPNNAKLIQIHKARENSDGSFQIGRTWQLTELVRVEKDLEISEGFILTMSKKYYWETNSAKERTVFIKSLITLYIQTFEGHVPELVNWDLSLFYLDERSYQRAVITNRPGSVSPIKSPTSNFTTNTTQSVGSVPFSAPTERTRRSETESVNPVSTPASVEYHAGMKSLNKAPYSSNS
Description: pull-down.

B1: Hisx6-Cdc42 (natural protein)
chain: not shown
For B1, the binding result is listed as “binds”.
